Results: US20180334496A1 (KODIAK SCIENCES, published 2018)

Biological target: T1, human Complement Factor D (CFD), purified from human serum (human, UniProt P00746 26-253)
T1 construct: serum purified (CompTech A136); also called serum purified CFD; hCFD-Comptech
Experiment: SPR MX96, mAbs amine-coupled, CFD injected

T1 sequence (P00746 26-253): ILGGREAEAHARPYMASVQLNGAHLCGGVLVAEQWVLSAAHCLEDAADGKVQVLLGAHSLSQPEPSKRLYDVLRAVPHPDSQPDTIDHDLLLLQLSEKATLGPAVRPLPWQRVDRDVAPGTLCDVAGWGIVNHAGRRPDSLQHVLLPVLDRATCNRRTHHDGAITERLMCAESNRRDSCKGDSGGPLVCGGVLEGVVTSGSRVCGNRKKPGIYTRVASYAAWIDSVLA

Row | Kd [nM] | Binder
1 | 14 | KCD128 (antibody, V domains shown) VH: QVQLQQPGAELVRPESSVKLSCKASGYTFTSYWMDWVMQRPGQGLEWIGNIYPSGSETHYNQKFKDKATLTVDKSSTTAYMQLSSLTFEDSAVYYCARSGFIGSRYLYYFDYWGQGTTLTVSS VL: DIVMTQSHKFMSTSVGDRVTITCKASQDVSNAVAWYQLKPGQSPKLLIYSASYRYTGVPDRFTGSGSGTDFTFTISSVQAADLAVYYCQQHYITPYTFGGGTKLEIK
2 | 33.3 | KCD063 (antibody, V domains shown) VH: EVKLVESGGGLVQPGGSLKLSCAASGFIFSSYIMSWVRQTPEKRLEWVAYITNGGGSTYYPDTVKGRLTISRDNAKNTLYLQMSSLKSEDTAMYYCVRHAHYYAMDYWGQGTSVTVSS VL: DIQMTQSPSSLSASLGGKVTITCKASQDINKYITWYQHKPGKGPRLLIHYTSTLQPGIPSRFSGSGSGRDYSFSISNLEPEDIATYYCLQYDNLLYTFGGGTKLEIK
3 | 21.8 | KCD014 (antibody, V domains shown) VH: EVKLVESGGGLVQPGGSLKLSCAASGFTFSSYIMSWVRQTPEKRLEWVAYITNGGGNTYYPDTIKGRFTISRDNAKNTLYLQMSSLKSEDTAMYYCARHGTGYAMDYWGQGTSVTVSS VL: EIVLTQSPTTMAASPGEKITITCSASSSISSNYLHWYQQKPGFSPKLLIYRTSNLASGVPARFSGSGSGTSYSLTIGTMEAEDVATYYCQQGSSIPLTFGAGTKLELK
4 | 20.3 | KCD064 (antibody, V domains shown) VH: EVKLVESGGGLVQPGGSLKLSCAASGFTFSSYIMSWVRQTPEKRLGWVAYITSGGGSTYYPDTVKGRFTISRDNAKNTLYLQMSSLKSEDTAMYYCARHGTGYAMDYWGQGTSVTVSS VL: DIQMTQSPSSLSASLGGKVTITCKASQDINKYIAWYQHKPGKGPRLLIHYTSTLQPGIPSRFSGSGSGRDYSFSISNLEPEDIATYYCLQYDNLLYTFGGGTELEIK
5 | 16.9 | KCD077 (antibody, V domains shown) VH: EVQLQQSGAELVRPGALVKLSCKASGFNIKDYYMHWVKQRPEQGLEWIGWIDPENGHTIYDPRFQGKATITADTSSNTAYLQLSSLTSEDTAVYYCSRGLLGFAYWGQGTLVTVSA VL: DIVMTQSQKFMSTSVGDRVSVTCKASQNVGTNVAWYQQKPGQSPKALIYTASYRYSGVPDRFTGSGSGTDFTLTISNVQSEDLAEYFCQQYNSYPHMYTFGGGTKLEIK
6 | 2.61 | KCD132 (antibody, V domains shown) VH: QVQLQQSGPELVKPGASVKISCKASGYSFTDYYINWVKQRPGQGLEWIGWIFPGSGSTYYNEKFKGKATLTVDKSSSTAYMLLSSLTSEDSAVYFCARTGYYSNLYAVDYWGQGTSVTVSS VL: DIQMTQSPASLSVSVGETVTITCRASENIYSNLAWYQQKQGKSPQLLVYVATNLADGVPSRFSGSGSGTQYSLKINSLQSEDFGNYYCQHFWGTPYTFGGGTKLEMR
7 | 1.44 | KCD122 (antibody, V domains shown) VH: EVQLQQSGPELVKPGASVKISCKASGYTFTDYYKNWMRQRHGESLEWIGDINPNNGDANYNQKFKGKATLTVDKSSSTAYMELRSLTSEDSAVYFCAREGPSFAYWGHGTLVTVSA VL: DVLMTQTPLSLPVSLGDQASISCRSSQTIVHSNGDTYLEWYLQKPGQSPNLLIYKVSNRFSGVPDRFSGSGSGTDFTLKISRVEAEDLGVYYCFQGSHVPPTFGGGTKLEIK
8 | 1.05 | KCD003 (antibody, V domains shown) VH: EVQLQQSRPELVKPGASVKIFCKASGYTFTDYYMNWMRQRHGETLEWIGDINPNNGDPSYNQKFKDKATLTVDKSSSTASMELRSLTSDDSAVYYCAREGPSFAYWGQGTLVTVSA VL: DVLMTQTPLSLPVSLGEQASISCRSSQTIVHSNGDTYLEWYLQKPGQSPNLLIYKVSNRFSGVPDRFSGSGSGTDFTLKISRVEAEDLGVYYCFQGSHVPPTFGGGTKLEIK
9 | 1.8 | KCD121 (antibody, V domains shown) VH: EVQLQQSGPELVKPGASVKISCKASGYTFTDYYKNWMRQRHGESLEWIGDINPNNGDTSYNQKFRGKATLTVDKSSSTAFMELRSLTSEDSAVYYCAREGPSFAYWGQGTLVTVSA VL: DVLMTQTPLSLPVSLGDQASISCRSNQTIVHSNGDTYLEWYLQKPGQSPNLLIYKVSNRFSGVPDRFSGSGSGTDFTLRISRVEAEDLGVYYCFQGSHVPPTFGGGTKLEIK
10 | 0.757 | KCD118 (antibody, V domains shown) VH: EVQLQQSGPELVKPGASVKISCKAFGYTFTDYYKNWMRQRHGESLEWIGDINPNSGDANYNQKFKGKATLTVDKSSSTAYMELRSLTSEDSAVYYCAREGPSFAYWGHGTLVTVSA VL: DVLMTQTPLSLPVSLGDQASISCRSSQTIVHSNGDTYLEWYLQKPGQSPNLLIYKVSNRFSGVPDRFSGSGSGTDFTLKISRVEAEDLGIYYCFQGSHVPPTFGGGTKLEIK
11 | 2.77 | KCD123 (antibody, V domains shown) VH: EVHLQQSGPELVKPGASVKISCKASGYTFTDFYKNWMRQRHGESLEWIGDINPNNGGTNYNQKFKGKATLTVDKSSSTAYMELRSLTSEDSAVYYCAREGPSFAYWGQGTLVTVSA VL: DVLMTQTPLSLPVSLGDQASISCRSSQTIVHSNGDTYLEWYLQKPGQSPNLLIYKVSNRFSGVPDRFSGSGSGTDFTLKISRVEAEDLGVYYCFQGSHVPPTFGGGTKLEIK
12 | 0.504 | KCD137 (antibody, V domains shown) VH: EVQLVESGGDLVKPGGSLKLSCAASGFTFSGYGMSWVRQIPDKRLEWVAISSRDNSFTYYPDSVKGRFTISRDNAKNTLYLQMSSLKSEDTALYFCTRHPYLPTGGYVMDYWGQGTSVTVSS VL: DIVMTQSHKFMSTSVGDRVSITCKASQDVGTAVAWYQQRPGQSPKLLIYWASTRHTGVPDRFTGSGSGTDFTLTVSNVQSEDLADYFCQQYTSYPLTFGAGTKLELK
13 | 3.56 | KCD102 (antibody, V domains shown) VH: QVQLQQPGAELVRPGTSVKLSCKASGYTFTSYWMHWVKQRPGQGLEWIGVIDPSDSYTNYNQKFKGKATLTVDTSSSTAYMQLSSLTSEDSAVYYCARNGYDGSMDYWGQGTSVTVSS VL: EIQMTQTTSSLSASLGDRVTISCRASQDISNYLNWYQQKPDGTVKLLIYYPSRLHSGVPSRFSGSGSGTDYSLTISNLEQEDFATYFCQQGNTLPYTFGGGTKLEIK
14 | 4.37 | KCD103 (antibody, V domains shown) VH: QVQLQQPGAELVRPGTSVKLSCKASGYTFTSYWMHWVKQRPGQGLEWIGVIDPSDSYTKYNQKFKDKATLTVETSSSTAYMQLSSLTSEDSAVYYCAGNGYDGSMDYWGQGTSVTVSS VL: DIQMTQTTSSLSASLGDRVTISCRASQDISNSLNWYQQKPDGTVKLLIYYTSRLHSRVPSRFSGSGSGTDYSLTISNLDQEDIATYFCQQANTLPYTFGGGTKLEIK
15 | 1.58 | KCD104 (antibody, V domains shown) VH: QVQLQQPGAELVRPGTSVKLSCKASGYTFTSYWMHWVKQRPGQGLEWIGVIDPSDSYTYYNQKFKGKATLTVDTSSSTAYMQLSSLTSEDSAVYYCARNGYDGAMDYWGQGTSVTVSS VL: EIQMTQTTSSLSASLGDRVTISCRASQDISNYLNWYQQKPDGTVKLLIYYPSRLHSGVPSRFSGSGSGTDYSLTISNLEQEDFATYFCQQGNTLPYTFGGGTKLEIK
16 | 3.78 | KCD101 (antibody, V domains shown) VH: QVQLQQPGAELVRPGTSVKLSCKASGYTFTSYWMHWVKQRPGQGLEWIGVIDPSDSYTNYNQKFKGKATLTVDTSSSTAYMQLSSLTSEDSAVYYCGRNGYDGSMDYWGQGTSVTVSS VL: DIQMTQTTSSLSASLGDRVTISCRASQDISNYLNWYQQKPDGTVKLLIYYPSRLHSGVPSRFSGSGSGTDYSLTISNLEQEDFATYFCQQGNTLPYTFGGGTKLEIK
